Measurements from patent publication US20140357543A1.

B1: proteinaceous protease inhibitor of SEQ ID NO:30 (protein)
chain: MSSVEKKPEGVNTGAGDRHNLKTAWPELVGKSVEEAKKVILQDKSEAQIIVLPVGTIVTMEYRIDRVRLFVDKLDNIAQVPRVG
B2: proteinaceous protease inhibitor of SEQ ID NO:32 (protein)
chain: MSSVEKKPEGVNTGAGDRHNLKTEWPELVGKSVEEAKKVILQDKSEAQIIVLPVGTIVTMEARIDRVRLFVDKLDNIAQVPRVG
B3: proteinaceous protease inhibitor of SEQ ID NO:33 (protein)
chain: MSSVEKKPEGVNTGAGDRHNLKTEWPELVGKSVEEAKKVILQDKSEAQIIVLPVGTIVTMEYAIDRVRLFVDKLDNIAQVPRVG
B4: proteinaceous protease inhibitor of SEQ ID NO:34 (protein)
chain: MSSVEKKPEGVNTGAGDRHNLKTEWPELVGKSVEEAKKVILQDKSEAQIIVLPVGTIVTMEYRADRVRLFVDKLDNIAQVPRVG
B5: proteinaceous protease inhibitor of SEQ ID NO:35 (protein)
chain: MSSVEKKPEGVNTGAGDRHNLKTEWPELVGKSVEEAKKVILQDKSEAQIIVLPVGTIVTMEYRIARVRLFVDKLDNIAQVPRVG
B6: proteinaceous protease inhibitor of SEQ ID NO:31 (protein)
chain: MSSVEKKPEGVNTGAGDRHNLKTEWPELVGKSVEEAKKVILQDKSEAQIAVLPVGTIVTMEYRIDRVRLFVDKLDNIAQVPRVG
B7: proteinaceous protease inhibitor of SEQ ID NO:36 (protein)
chain: MSSVEKKPEGVNTGAGDRHNLKTEWPELVGKSVEEAKKVILQDKSEAQIIVLPVGTIVTMEYRIDRVRLFVDKLDNIAQVPAVG
B8: proteinaceous protease inhibitor of SEQ ID NO:26 (protein)
chain: TDTGDHHNQKTDWPELVGKSVEEAPKVILQDKSEAPIAVLPVGTLVTAEAAAARVRLFVDSLDKIAQVPAVG
B9: proteinaceous protease inhibitor of SEQ ID NO:2 (protein)
chain: TDTGDHHNQKTDWPELVGKSVEEAKKVILQDKSEAQIVVLPVGTIVTMEYRIDRVRLFVDSLDKIAQVPRVG
B10: proteinaceous protease inhibitor of SEQ ID NO:4 (protein)
chain: TDTGDHHNQKTEWPELVGKSVEEAKKVILQDKSEAQIAVLPVGTIVTMEYRIDRVRLFVDSLDKIAQVPRVG
B11: proteinaceous protease inhibitor of SEQ ID NO:27 (protein)
chain: TDTGDHHNQKTKWPELVGKSVEEAKKVILQDKSEAQIVVLPVGTIVTMEYRIDRVRLFVDSLDKIAQVPRVG
B12: proteinaceous protease inhibitor of SEQ ID NO:11 (protein)
chain: TDTGDHHNQKTEWPELVGKSVEEAKKVILQDKSEAQIVVLPVGTIVTMEFRIDRVRLFVDSLDKIAQVPRVG
B13: proteinaceous protease inhibitor of SEQ ID NO:8 (protein)
chain: TDTGDHHNQKTEWPELVGKSVEEAKKVILQDKSEAQIVVLPVGTIVTGEYRIDRVRLFVDSLDKIAQVPRVG
B14: proteinaceous protease inhibitor of SEQ ID NO:25 (protein)
chain: TDTGDHHNQKTEWPELVGKSVEEAKKVILQDKSEAQIAVLPVGTIVTMEYRIDRVRLFVDSLDKIAQVPAVG
B15: proteinaceous protease inhibitor of SEQ ID NO:28 (protein)
chain: TDTGDHHNQKTEWPELVGKSVEEAKKVILQDKSEAQIVVLPVGTIVTMEGRIDRVRLFVDSLDKIAQVPRVG
B16: proteinaceous protease inhibitor of SEQ ID NO:16 (protein)
chain: TDTGDHHNQKTEWPELVGKSVEEAKKVILQDKSEAQIVVLPVGTIVTMEYRVDRVRLFVDSLDKIAQVPRVG
B17: proteinaceous protease inhibitor of SEQ ID NO:19 (protein)
chain: TDTGDHHNQKTEWPELVGKSVEEAKKVILQDKSEAQIVVLPVGTIVTMEYRIDRVRLFVDSLDKIAQVPAVG
B18: proteinaceous protease inhibitor of SEQ ID NO:23 (protein)
chain: TDTGDHHNQKTEWPELVGKSVEEAKKVILQDKSEAQIAVLPVGTIVTMEYRAARVRLFVDSLDKIAQVPRVG
B19: proteinaceous protease inhibitor of SEQ ID NO:9 (protein)
chain: TDTGDHHNQKTEWPELVGKSVEEAKKVILQDKSEAQIVVLPVGTIVTMEARIDRVRLFVDSLDKIAQVPRVG
B20: proteinaceous protease inhibitor of SEQ ID NO:10 (protein)
chain: TDTGDHHNQKTEWPELVGKSVEEAKKVILQDKSEAQIVVLPVGTIVTMELRIDRVRLFVDSLDKIAQVPRVG
B21: proteinaceous protease inhibitor of SEQ ID NO:7 (protein)
chain: TDTGDHHNQKTEWPELVGKSVEEAKKVILQDKSEAQIVVLPVGTIVTAEYRIDRVRLFVDSLDKIAQVPRVG
B22: proteinaceous protease inhibitor of SEQ ID NO:20 (protein)
chain: TDTGDHHNQKTEWPELVGKSVEEAKKVILQDKSEAQIVVLPVGTIVTMEYRIDRVRLFVDSLDKIAQVPGVG
B23: proteinaceous protease inhibitor of SEQ ID NO:12 (protein)
chain: TDTGDHHNQKTEWPELVGKSVEEAKKVILQDKSEAQIVVLPVGTIVTMEYAIDRVRLFVDSLDKIAQVPRVG
B24: proteinaceous protease inhibitor of SEQ ID NO:17 (protein)
chain: TDTGDHHNQKTEWPELVGKSVEEAKKVILQDKSEAQIVVLPVGTIVTMEYRIERVRLFVDSLDKIAQVPRVG
B25: proteinaceous protease inhibitor of SEQ ID NO:15 (protein)
chain: TDTGDHHNQKTEWPELVGKSVEEAKKVILQDKSEAQIVVLPVGTIVTMEYRADRVRLFVDSLDKIAQVPRVG
B26: proteinaceous protease inhibitor of SEQ ID NO:22 (protein)
chain: TDTGDHHNQKTEWPELVGKSVEEAKKVILQDKSEAQIAVLPVGTIVTMEYAADRVRLFVDSLDKIAQVPRVG
B27: proteinaceous protease inhibitor of SEQ ID NO:21 (protein)
chain: TDTGDHHNQKTEWPELVGKSVEEAKKVILQDKSEAQIVVLPVGTIVTMEYRIDRVRLFVDSLDKIAQVPKVG
B28: proteinaceous protease inhibitor of SEQ ID NO:13 (protein)
chain: TDTGDHHNQKTEWPELVGKSVEEAKKVILQDKSEAQIVVLPVGTIVTMEYKIDRVRLFVDSLDKIAQVPRVG
B29: proteinaceous protease inhibitor of SEQ ID NO:3 (protein)
chain: TDTGDHHNQKTAWPELVGKSVEEAKKVILQDKSEAQIVVLPVGTIVTMEYRIDRVRLFVDSLDKIAQVPRVG
B30: proteinaceous protease inhibitor of SEQ ID NO:29 (protein)
chain: TDTGDHHNQKTEWPELVGKSVEEAKKVILQDKSEAQIVVLPVGTIVTMEYRIDRVRLFVDSLDKIAQVPNVG
B31: proteinaceous protease inhibitor of SEQ ID NO:24 (protein)
chain: TDTGDHHNQKTEWPELVGKSVEEAKKVILQDKSEAQIVVLPVGTIVTGEYRIDRVRLFVDSLDKIAQVPAVG
B32: proteinaceous protease inhibitor of SEQ ID NO:18 (protein)
chain: TDTGDHHNQKTEWPELVGKSVEEAKKVILQDKSEAQIVVLPVGTIVTMEYRIARVRLFVDSLDKIAQVPRVG
B33: proteinaceous protease inhibitor of SEQ ID NO:14 (protein)
chain: TDTGDHHNQKTEWPELVGKSVEEAKKVILQDKSEAQIVVLPVGTIVTMEYHIDRVRLFVDSLDKIAQVPRVG

biological target: T1, alcalase (trade name "Alcalase 2.5L", Novozymes) (UniProt P00780); test: cell-based or functional assay
T1 sequence (looked up): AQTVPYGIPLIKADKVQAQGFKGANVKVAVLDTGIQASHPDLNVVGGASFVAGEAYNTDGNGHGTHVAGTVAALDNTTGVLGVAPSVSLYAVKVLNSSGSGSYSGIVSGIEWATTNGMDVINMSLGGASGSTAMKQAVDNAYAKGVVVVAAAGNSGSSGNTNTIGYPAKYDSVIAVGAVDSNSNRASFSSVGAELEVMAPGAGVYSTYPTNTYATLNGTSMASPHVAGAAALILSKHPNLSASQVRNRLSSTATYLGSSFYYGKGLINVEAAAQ

In order of falling Protease activity upon dilution (%) immediately after preparation:
1. B9  100%
2. B22  100%
3. B27  100%
4. B11  98%
5. B16  95%
6. B24  95%
7. B30  95%
8. B12  90%
9. B15  90%
10. B20  90%
11. B29  89%
12. B21  86%
13. B8  85%
14. B13  85%
15. B17  85%
16. B19  85%
17. B32  85%
18. B33  85%
19. B18  82%
20. B26  82%
21. B31  82%
22. B7  81%
23. B1  80%
24. B5  80%
25. B10  80%
26. B14  80%
27. B25  80%
28. B4  75%
29. B6  75%
30. B2  73%
31. B28  25%
32. B23  20%
33. B3  18%

In order of falling Remaining activity (%) immediately after preparation:
1. B21  25%
2. B13  23%
3. B31  20%
4. B8  19%
5. B30  19%
6. B15  18%
7. B19  18%
8. B11  16%
9. B1  15%
10. B2  15%
11. B27  13%
12. B9  10%
13. B22  10%
14. B16  9%
15. B20  9%
16. B24  9%
17. B12  8%
18. B29  7%
19. B33  5%
20. B28  4%
21. B25  3%
22. B32  3%
23. B5  2%
24. B6  2%
25. B10  2%
26. B17  2%
27. B23  2%
28. B3  1%
29. B4  1%
30. B7  1%
31. B14  1%
32. B18  1%
33. B26  1%
